Experimental data: ChEMBL document CHEMBL1142441, “Stereochemical studies on the novel monoamine oxidase B substrates (1R,6S)- and (1S,6R)-3-methyl-6-phenyl-3-aza-bicyclo[4.1.0]heptane” (Bioorg Med Chem, 2008)

How the values were obtained:
[1] = substrate: [H][C@]12CN(C)CC[C@@]1(c1ccccc1)C2; test: (§1) Activity of 50 nM human recombinant MAOB after 30 mins
[2] = substrate: [H][C@@]12CN(C)CC[C@]1(c1ccccc1)C2; test: as §1

B1: Amine oxidase [flavin-containing] B (Homo sapiens) (protein)
chain: MSNKCDVVVVGGGISGMAAAKLLHDSGLNVVVLEARDRVGGRTYTLRNQKVKYVDLGGSYVGPTQNRILRLAKELGLETYKVNEVERLIHHVKGKSYPFRGPFPPVWNPITYLDHNNFWRTMDDMGREIPSDAPWKAPLAEEWDNMTMKELLDKLCWTESAKQLATLFVNLCVTAETHEVSALWFLWYVKQCGGTTRIISTTNGGQERKFVGGSGQVSERIMDLLGDRVKLERPVIYIDQTRENVLVETLNHEMYEAKYVISAIPPTLGMKIHFNPPLPMMRNQMITRVPLGSVIKCIVYYKEPFWRKKDYCGTMIIDGEEAPVAYTLDDTKPEGNYAAIMGFILAHKARKLARLTKEERLKKLCELYAKVLGSLEALEPVHYEEKNWCEEQYSGGCYTTYFPPGILTQYGRVLRQPVDRIYFAGTETATHWSGYMEGAVEAGERAAREILHAMGKIPEDEIWQSEPESVDVPAQPITTTFLERHLPSVPGLLRLIGLTTIFSATALGFLAHKRGLLVRV
**Q.** What does the source list for B1?
**A.** Km [1]: 221 µM; Km [2]: 221 µM
